Results as given in patent US12072338B2, “Pharmaceutical peptides for the treatment of inflammatory diseases” (PROTAGONISTS LTD., priority 2007, dated 2024).
“Also recorded” adds a separate entry of the source. Like-named read-outs stand apart in the source and are kept apart here. Ends that are not written are not given here.

Columns and labels:
IL-8 = experiment: Micro-array analysis of chemokine binding peptides: IL-8; conditions: limit = start of the upper 75% of that peptide's response range
Procedure, shortened: (§1)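 Chemokines printed at 25 and 50 μg/ml on protein microarray slides, blocked, then probed 1 h at RT with peptide-displaying recombinant phage (10^7 pfu/μl). Bound phage detected with mouse anti-M13 then Cy3 anti-mouse IgG. Cy3 fluorescence scanned, reported as relative fluorescence versus chemokine concentration.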

Mig = target: T1, Mig (Homo sapiens, UniProt Q07325); experiment: Micro-array analysis of chemokine binding peptides: Mig; conditions: limit = start of the upper 75% of that peptide's response range
T1 construct: purchased 300-26
T1 sequence (Q07325 23-125): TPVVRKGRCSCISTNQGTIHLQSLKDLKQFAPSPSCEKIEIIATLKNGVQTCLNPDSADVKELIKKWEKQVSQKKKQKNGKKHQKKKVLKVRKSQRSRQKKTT
Procedure, shortened: as §1

I-309 = target: T2, I-309 (Homo sapiens, UniProt P22362); experiment: Micro-array analysis of chemokine binding peptides: I-309; conditions: limit = start of the upper 75% of that peptide's response range
T2 construct: purchased 300-37
T2 sequence (P22362 24-96): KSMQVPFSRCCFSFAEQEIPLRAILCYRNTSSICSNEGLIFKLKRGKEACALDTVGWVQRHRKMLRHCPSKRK
Procedure, shortened: as §1

MCP-1 = target: T3, MCP-1 (Homo sapiens, UniProt P13500); experiment: Micro-array analysis of chemokine binding peptides: MCP-1; conditions: limit = start of the upper 75% of that peptide's response range
T3 construct: purchased 300-04
Protocol: (§2) (1) Printing: Chemokine (CK) solution (in water) was serially diluted with Print Reagent (GenTel BioSurfaces USA) to final concentrations of 50 μg and 25 μg/ml. BSA/BSA-Biotin control solutions (in water) were diluted with Print Reagent to 100 μg/ml. Amplified stock of M13 phage control (M13KEgIII Cloning Vector, New England Biolabs, Cat.No.E8101S) was stored in Tris Buffered Saline (TBS; pH7.5, 4° C.) and diluted with Print Reagent to the working titre (10^8 pfu/μl). An automated spotting robot (16 pin print tool, 0.4 mm head; BioRobotics, UK) was used to print the CK/BSA control/M13 control, 5 repeats per sample (CK 25 μg/ml and 50 μg/ml; BSA 100 μg/ml; M13 20 μl), on PATH Protein Microarray Slides (GenTel, Prod.No. 2-1005/-1025) at […], and 50-70% relative humidity. Printed micro-array slides were stored at Room Temperature (RT) or 4° C. for at least 24 h before use.
(§3) (2) Blocking: Block Buffer (500 μl/partition; PATHblock, GenTel, Prod.No. 2-1014) was applied to the slide for 1 hour at room temp (RT). After removal of Block Buffer, the slide was air dried for 25 minutes;
(§4) (3) Phage Presented Peptide Binding: Amplified recombinant phage stock was stored in TBS and diluted with Wash Buffer to working titer (10^7 pfu/μl). Recombinant phage suspension (300 μl) was applied per partition and incubated at RT for 1 hour with gentle agitation.
(§5) (4) First Washing: The slides were washed twice with Wash Buffer 300 μl/partition).
(§6) (5) Primary Antibody (Ab) Labeling: The slides were incubated with the Primary Ab (1 mg/ml diluted ×2500 (Wash Reagent), 300 μl; Mouse Anti-M13 monoclonal Ab; Amersham Biosciences, UK; Product Code 27-9420-01) for 45 minutes at RT.
(§7) (6) Second Washing: The slides were washed twice with Wash Buffer (300 μl/partition).
(§8) (7) Secondary Ab Labeling: The slides were incubated with Secondary Ab (1.5 mg/ml diluted ×5000 (Wash Reagent), 300 μl; Cy3-conjugated AffiniPure Goat Anti-Mouse IgG; Jackson ImmunoReserch Labs, USA; Product Code 115-165-062).
(§9) (8) Third Washing: The slides were washed twice with Wash Buffer (300 μl/partition).
(§10) (9) Rinse: the slides were rinsed twice with Rinse Buffer (PATHrinse, GenTel, Prod.No. 2-1018) then dried well.
(§11) (10) Scanning: The peptide-bound, labeled slide was scanned (Laser Intensity 80%, Gain 80%, Resolution 10 μm) with a ScanArray Life Scanner (Packard BioChip Technologies, USA).
(§12) (11) Analysis: Quantitative analysis of micro-array was performed by the SpotReader program of Niles Scientific (USA) and presented as Relative Fluorescence (RF) as a function of CK concentration. Micro-array readout (Cy3 fluorescence) was quantified to determine the relative binding affinities of a CBP for the CKs and by inference, the specificity of the CBP for binding to a CK.

MCP-4 = target: T4, MCP-4 (Homo sapiens, UniProt Q99616); experiment: Micro-array analysis of chemokine binding peptides: MCP-4; conditions: limit = start of the upper 75% of that peptide's response range
T4 construct: purchased 300-24
Procedure, shortened: as §1

RANTES = target: T5, RANTES (Homo sapiens, UniProt P13501); experiment: Micro-array analysis of chemokine binding peptides: RANTES
T5 construct: purchased 300-06
T5 sequence (P13501 24-91): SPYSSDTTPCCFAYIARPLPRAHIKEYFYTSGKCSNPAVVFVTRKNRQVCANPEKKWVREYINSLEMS
Procedure, shortened: as §1

Eotaxin = target: T6, Eotaxin (Homo sapiens, UniProt P51671); experiment: Micro-array analysis of chemokine binding peptides: Eotaxin; conditions: limit = start of the upper 75% of that peptide's response range
T6 construct: purchased 300-21
Procedure, shortened: as §1

Eotaxin 3 = target: T7, Eotaxin 3 (Homo sapiens, UniProt Q9Y258); experiment: Micro-array analysis of chemokine binding peptides: Eotaxin 3; conditions: limit = start of the upper 75% of that peptide's response range
T7 construct: purchased 300-48
T7 sequence (Q9Y258 24-94): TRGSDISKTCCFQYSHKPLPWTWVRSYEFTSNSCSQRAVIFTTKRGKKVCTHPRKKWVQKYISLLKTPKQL
Procedure, shortened: as §1

SDF1-α = target: T8, SDF1-α (Homo sapiens, UniProt P48061); experiment: Micro-array analysis of chemokine binding peptides: SDF1-α
T8 construct: purchased 300-28a
Protocol: as §2, §3, §4, §5, §6, §7, §8, §9, §10, §11, §12

SDF1-β = target: T9, SDF1-β (Homo sapiens, UniProt P48061); experiment: Micro-array analysis of chemokine binding peptides: SDF1-β
T9 construct: purchased 300-28b
Procedure, shortened: as §1

TECK = target: T10, TECK (Homo sapiens, UniProt O15444); experiment: Micro-array analysis of chemokine binding peptides: TECK
T10 construct: purchased 300-45
T10 sequence (O15444 24-150): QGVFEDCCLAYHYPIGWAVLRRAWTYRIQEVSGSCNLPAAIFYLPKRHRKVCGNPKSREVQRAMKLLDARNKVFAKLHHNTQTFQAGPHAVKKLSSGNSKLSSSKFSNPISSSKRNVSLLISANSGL
Procedure, shortened: as §1

Fractalkine = target: T11, Fractalkine (Homo sapiens, UniProt P78423); experiment: Micro-array analysis of chemokine binding peptides: Fractalkine
T11 construct: purchased 300-31
T11 sequence (P78423 25-100 limits assumed): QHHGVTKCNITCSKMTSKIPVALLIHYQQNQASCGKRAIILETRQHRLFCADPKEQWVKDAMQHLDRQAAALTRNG
Procedure, shortened: as §1

MIP3-α = target: T12, MIP3-α (Homo sapiens, UniProt P78556); experiment: Micro-array analysis of chemokine binding peptides: MIP3-α
T12 construct: purchased 300-29A
Protocol: as §2, with “use. […]” for “use.”
as §12

Exodus-2 = target: T13, Exodus-2 (Homo sapiens, UniProt O00585); experiment: Micro-array analysis of chemokine binding peptides: Exodus-2
T13 construct: purchased 300-35
T13 sequence (O00585 24-134): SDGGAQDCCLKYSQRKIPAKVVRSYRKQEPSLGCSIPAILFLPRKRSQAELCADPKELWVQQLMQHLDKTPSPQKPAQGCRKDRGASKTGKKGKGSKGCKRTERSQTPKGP
Procedure, shortened: as §1

SDF1 = experiment: Micro-array analysis of chemokine binding peptides: SDF1 (isoform not given)
Protocol: as §2, §3, §4, §5, §6, §7, §8, §9, §10, §11, §12

[1] = tested on: healthy, non-disease-induced rats; experiment: Effect on healthy, non-disease-induced rats; assay type: in vivo, rat; conditions: 30 ug/injection IP on 12 consecutive days
Protocol: P15 was injected IP (30 ug/injection) on 12 consecutive days to determine if this anti-inflammatory peptide had any effect at a therapeutic dose on healthy, non-disease-induced rats.

T8 sequence (P48061 22-89 limits assumed): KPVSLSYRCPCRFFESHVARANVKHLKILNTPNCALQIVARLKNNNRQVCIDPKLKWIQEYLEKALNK
SDF1, sequence (P48061 22-89 limits assumed): as above
T12 sequence (P78556 27-96): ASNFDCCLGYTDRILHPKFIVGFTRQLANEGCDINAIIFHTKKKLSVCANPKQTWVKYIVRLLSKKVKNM
T3 sequence (P13500 24-99): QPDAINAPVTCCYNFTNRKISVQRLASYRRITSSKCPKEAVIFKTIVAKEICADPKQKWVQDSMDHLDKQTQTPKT
T9 sequence (P48061 22-93): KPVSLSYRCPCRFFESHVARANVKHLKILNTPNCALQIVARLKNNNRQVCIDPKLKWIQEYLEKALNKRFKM
T4 sequence (Q99616 17-98): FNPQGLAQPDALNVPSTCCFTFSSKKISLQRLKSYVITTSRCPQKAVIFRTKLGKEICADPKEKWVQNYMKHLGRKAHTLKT
IL-8, sequence (P10145 28-99 limits assumed): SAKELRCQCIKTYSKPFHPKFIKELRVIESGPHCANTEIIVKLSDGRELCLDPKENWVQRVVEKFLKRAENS

Row | binding to IL-8 with relatively high affinity (Relative Fluorescence Units) (IL-8) | binding to Mig with relatively high affinity (Relative Fluorescence Units) (Mig) | binding to I-309 with relatively high affinity (Relative Fluorescence Units) (I-309) | binding to MCP-1 with relatively high affinity (Relative Fluorescence Units) (MCP-1) | binding to MCP-4 with relatively high affinity (Relative Fluorescence Units) (MCP-4) | binding to RANTES, stated in words (RANTES) | binding to RANTES with relatively high affinity (Relative Fluorescence Units) (RANTES; limit = start of the upper 75% of that peptide's response range) | binding to Eotaxin with relatively high affinity (Relative Fluorescence Units) (Eotaxin) | binding to Eotaxin 3 with relatively high affinity (Relative Fluorescence Units) (Eotaxin 3) | binding to SDF1-α, stated in words (SDF1-α) | binding to SDF1-β, stated in words (SDF1-β) | binding to TECK, stated in words (TECK) | binding to Fractalkine, stated in words (Fractalkine) | binding to Fractalkine, stated in words (Fractalkine; listed as P5) | binding to MIP3-α, stated in words (MIP3-α) | binding to Exodus-2, stated in words (Exodus-2) | binding to SDF1 (isoform not given), stated in words (SDF1) | Substance | physiological or behavioral effect on healthy rats [1]
1 | > 2,500 RFU | > 2,500 RFU | > 2,500 RFU | > 2,500 RFU | > 2,500 RFU | bound specifically and differentially | > 2,500 RFU | > 2,500 RFU | > 2,500 RFU | bound | bound | bound | bound | bound specifically and differentially | bound | bound | bound specifically and differentially | LFGNDCE [CBP5] | 
2 |  |  |  |  |  |  |  |  |  |  |  |  |  |  |  |  |  | WVFGSGLCK [Ph-p15, WVFGSGLCK] | no apparent effect; also recorded: no obvious physiological or behavioral effect
